Results published in paper PMC10893412, “Genetic and Biochemical Characterization of AXC-2 from Achromobacter ruhlandii” (Pathogens, 2024).

Columns and labels:
Test in all cases: purified protein
Settings in all cases: 25 mM sodium phosphate pH 7.5, 25 °C
[1] = tested on: CC1=C(C(=O)O)N2C(=O)[C@@H](NC(=O)[C@H](N)c3ccccc3)[C@H]2SC1
[2] = tested on: CC1(C)S[C@@H]2[C@H](NC(=O)Cc3ccccc3)C(=O)N2[C@H]1C(=O)O; type: biochemical, Achromobacter ruhlandii
Text: (§1) UV/Vis spectrophotometric hydrolysis, steady state on AXC-2

[3] = tested on: CC1(C)S[C@@H]2[C@H](NC(=O)[C@H](N)c3ccccc3)C(=O)N2[C@H]1C(=O)O; type: biochemical, Achromobacter ruhlandii
Text: as §1

[4] = tested on: CO/N=C(\C(=O)N[C@@H]1C(=O)N2C(C(=O)O)=C(CSc3nc(=O)c(=O)[nH]n3C)CS[C@H]12)c1csc(N)n1; type: biochemical, Achromobacter ruhlandii
Text: as §1

[5] = tested on: CO/N=C(\C(=O)N[C@@H]1C(=O)N2C(C(=O)[O-])=C(C[N+]3(C)CCCC3)CS[C@H]12)c1csc(N)n1; type: biochemical, Achromobacter ruhlandii
Text: as §1

[6] = tested on: C[C@@H](O)[C@H]1C(=O)N2C(C(=O)O)=C(SCCN=CN)C[C@H]12; type: biochemical, Achromobacter ruhlandii
Text: as §1

[7] = tested on: C[C@@H](O)[C@H]1C(=O)N2C(C(=O)O)=C(S[C@@H]3CN[C@H](C(=O)N(C)C)C3)[C@H](C)[C@H]12; type: biochemical, Achromobacter ruhlandii
Text: as §1

[8] = tested on: O=C(Cc1cccs1)N[C@@H]1C(=O)N2C(C(=O)O)=C(/C=C/c3ccc([N+](=O)[O-])cc3[N+](=O)[O-])CS[C@H]12; type: biochemical, Achromobacter ruhlandii
Text: as §1

## AXC-2 (Achromobacter ruhlandii)
[1]
  Km: 74 ± 14 µM
  kcat: 16 s⁻¹
  kcat/Km: 220000 M⁻¹ s⁻¹
[2]
  Km: 1297 ± 409 µM
  kcat: 125 ± 28 s⁻¹
  kcat/Km: 100000 ± 50000 M⁻¹ s⁻¹
[3]
  Km: 344 ± 14 µM
  kcat: 62 ± 5 s⁻¹
  kcat/Km: 180000 ± 20000 M⁻¹ s⁻¹
[4]
  Km: 59 ± 6 µM
  kcat: 5.5 ± 0.3 s⁻¹
  kcat/Km: 90000 ± 10000 M⁻¹ s⁻¹
[5]
  Km: 872 ± 254 µM
  kcat: 0.29 ± 0.07 s⁻¹
  kcat/Km: 300 ± 100 M⁻¹ s⁻¹
[6]
  Km: 6.3 ± 0.8 µM
  kcat: 0.0364 ± 0.0009 s⁻¹
  kcat/Km: 5800 ± 900 M⁻¹ s⁻¹
[7]
  Km: 8 ± 1 µM
  kcat: 0.051 ± 0.002 s⁻¹
  kcat/Km: 7000 ± 1000 M⁻¹ s⁻¹
[8]
  Km: 202 ± 24 µM
  kcat: 40 ± 3 s⁻¹
  kcat/Km: 200000 ± 40000 M⁻¹ s⁻¹
